According to PMC7915732 (2021):
Bridge positions count the residues as written; N and C are the ends. Ends that are not written are not given here.

Experiments:
cyclo[E-LYLAYPAH-K] [1] = target: T1, cyclo[E-LYLAYPAH-K] (synthetic construct, lactam 1-10); assay: resin adsorption isotherm
T1 chain: ELYLAYPAHK

cyclo[E-LYLAYPAH-K] [2] = target: T2, cyclo[E-LYLAYPAH-K] (synthetic construct, lactam 1-10); assay: yeast surface titration
T2 chain: ELYLAYPAHK

Kd (cyclo[E-LYLAYPAH-K] [1]): 2.64 µM
Kd (cyclo[E-LYLAYPAH-K] [2]): 0.68 µM
B1: YAP WW domains 165-271 (protein)
chain: FEIPDDVPLPAGWEMAKTSSGQRYFLNHIDQTTTWQDPRKAMLSQMNVTAPTSPPVQQNMMNSASGPLPDGWEQAMTQDGEIYYINHKNKTTSWLDPRLDPRFAMNQ
